In publication PMC10315481:

Target: globupain, wild-type zymogen (proenzyme) (unclassified Archaeoglobus species (metagenome))
Test: SEC + AUC; SEC: Superdex 75 10/300 GL, 50 mM potassium phosphate pH 7.0, 150 mM NaCl, 500 uL of globupain at 1 mg/mL, calibrated with proteins of known molecular weight; AUC (p-0016): sedimentation velocity, 20°C, 50,000 rpm, 50 mM potassium phosphate pH 7.0, 150 mM NaCl, 1 mM EDTA, c(s) distribution in …

stoichiometry N: 2
Substance: globupain, wild-type zymogen (proenzyme)
